Measured values from the nanobody polyreactivity screen of Harvey et al. (2022).

Assay: yeast display, Sf9 membrane polyspecificity reagent, FACS + sequencing; frameworks hold sequencing errors
Procedure, shortened: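 A nanobody's polyreactivity label depends on the gate it was sorted from. Yeast display cells were stained with 10% biotinylated, detergent-solubilized Sf9 membrane reagent for 1 hour at 4 °C, enriched on streptavidin microbeads and sorted by FACS. The low and high (top ~1%) gates were set on anti-HA fluorescence for expression and streptavidin fluorescence for reagent binding.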

| Sequence | polyreactivity (PSR sort gate) |
| --- | --- |
| QVQLVESGGGLVQAGGSLRLSCAASGSTFYNAMGWYRQAPGKERELVAAITRSGGSTYYADSVKGRFTISRDNAKNTVYLQMNSLKPEDTAVYYCAAKSIIRPSAPRRDDMDYWGQGTQVTVSS | low polyreactivity |
| QVQLVESGGGLVQAGGSLRLSCAASGPIFATNAMGWYRQAPGKERELVASISSGGGSTYYADSVKGRFTISRDNAKNTVYLQMNSLKPEDTAVYYCAADYYTGYVWEDYYWGQGTQVTVSS | low polyreactivity |
| QVQLVESGGGLVQAGGSLRLICAASGIFSYYARGWYRQAPGKERELVATISRRGSSTYYADSVKGRFTISRDNAKNTVYLQMNSLKPEDTAVYYCNADIGWGRFSQSFDYWGQGTQVTVSS | low polyreactivity |
| QVHLLESGRGLVQAGGSLRLSCAASGRIFYTNAMGSYRQAPGKERELVAVISWGGDTTYYADSVKGRFTISRDNAKNTVYLQMNSLKPEDTAGYYCNADWGPTYEISDSWGQGNQVTVSS | low polyreactivity |
| QVQLEESGGGVVQAGGSLRLSCAASGSTFLQYAMGWYRQATGKERELVAAISWRAGSTYYADSVKGRFTISRDTAQNTVYLQMNSLKPEDTAVYYCAADRNGWRYELDDYDYWGQGTQVTVSS | low polyreactivity |
| QVQLLESGGGLVQAGGSLRLSCAASGRIIPYYAMGWYRQAPGKERELVATITSGGSTYYADSVKGRFTISRDNAKNTVYLQRNSLKPEDTAVYYCAARYPSIYYYRYDYWGQGTHVTVSS | high polyreactivity |
| QVQLVESGGGLVQAGGSLRLSCAASRSTIPSYAMGWSRQAPGKERELVASITYSDGTTRYADSVKGRFTISRDNAKNTVYLQMNSLKPEDTAVYYCNAVYYRDGMDYWGQGTQVTVSS | low polyreactivity |
| QVQLVESGGGLVQAGGSLRLSCAASGSTFVYYTMGWYRPAPGKERELVAAITSGTSTNYADSVKGRFTISRDNAKNTVYLQMNSLKPEDTAVYDCNAQRRGTYYWGQGTQVTVSS | high polyreactivity |
| QVQLVESVGVLVQAGGSLRLSCAASGITFSSYAMGWYRQAPGKERELVAAITRTGGRTYYADSVKGRFTISRDNAKNTVYLQMNRLKPEDTAVYYCAAYYIAYYYWGQGTQVTVSS | high polyreactivity |
| QVQLVESGGGLVQAGGSLRLSCAASGLIFYEHAMGWYRQAPGKERELVAAINYDGDSTYYADSVKGRFTISRDNAKITVYLQMNSLKPEDTAVYYCAADGGWVLFWMDYCGQGTQVTVSS | low polyreactivity |
| QVQLVESGGGLVQAGGSLRLSCAASGRIFYYNGMGWSRQAPGKERELVAAITANGGSTYYADSVKGRFTISRDNAKNTVYLQMNSLKPDDTAVYYCAARYRFGGIRRYNYWGQGTQVTVSS | high polyreactivity |
| QVQLVESGGGLVQAGGSLRLSCAASGLTFRRNTMGWYRQAPGKERELVATITSGGSTNYADSVKGRFTISRDNAKNTVYLQMNSLKPEDTAVYYCAARTTYITTWVYRHTYTYYYWGQGTQVTVSS | high polyreactivity |
| QVQLVESGGGLVQAGGSLRLSCAASGLTFRVNDMGWYRQAPGKERELVATISSGGSTYYADSVKGRFTISRDNAKNTVYLQMNSLKPEDTAVYYCATNSEGQESNSYYVWMGYWGQGTQVTVSS | low polyreactivity |
| QVQLVESGGGLVQAGGSLRLSCAASGRTFSVYTMGWYRQAPGKERELVASISRSGGRTYYADSVKGRFTISRDNAKNTVYLQMNSLKPADTAVYYCAARWYSASALKYYYWGQGTQVTVSS | high polyreactivity |
| QVQLVESGGGLVQAGGSLRLSCAASGRIFKRNAMGWYRQAPGKERELVAAISYSGGSTYYADSVKGRFTISRDNAKQTVYLQMNSLKPEDTAVYYCAVDRYPTGITKYDYWGQGTLVTVSS | high polyreactivity |
| QVQLVESGGGLVQAGGSLRLSCAASGFIFYYNTMGWYRQAPGKERELVASITWSGDTTYYADSVKGRFTISRDNAKNTVYLQMNSLKPEDTAVYYCAAVHYYTYRRYDYWGQGTQVTVSS | low polyreactivity |
| QVQLVESGGGLVQAGGSLRLSCAASGSTFGGNAMGWYRQAPGKERELVAAISSGDSTTYADSVKGRFTISRDNAKNTVYLQMNSLKPEDTAVYYSNRSPKSGQVTYLYSVNAHYDYWGQGTQVTVSS | low polyreactivity |
| QVQLVESGGGLVQAGGSLRLICAASGFIFLDYAMGWSRPAPGKERELVAAISSRGARTYYADSVKGRFTISRDNEKNTVYLQMNSLKPEDTAVYYCAARGPLDRYGYWGQGTQVTVSS | high polyreactivity |
| QVQLVESVGCLVQAGGSLRLSCPASGFNFPGYALGWYRQAPGKERELVAAITGSGGRTYYADSVKGRFTISRDNAKNTVYLQMNSLKQEDTAVYYCLARSYYNWNDYWGQGTQVTVSS | high polyreactivity |
| QVQLVESGGGLVQAGGSLRLSCAASGLTFDYYAMGWYRQAPGKERELVAAISIGGSTNYADSVKGRFTISRDNAKNNVYLQMNSLKPEDTAVYYCAAQGYLRLRTHFNYWGQGTQVTVSS | low polyreactivity |
| QVQLVESGGGLVQAGGSLRLSCAASGSIFRVYAMGWYRQAPGKERELVAAISWGGGTTYYADSVKGRFTISRDNAKNTVYLQMNSLKPEDTAVYYCNKVGVRSGARSIYVVRRYEYWGQGTQVTVSS | high polyreactivity |
| QVQLVESGGGLVQAGGSLRLSCAASGLTLYQYSMGWYRQAPGKERELVAAIPTSGSTYFADSVKGRFTISRDNAKNTVYLQMNSLKPEDTAVYYCAADVYYVDTLSGYRYGYDYWGQCTQVTVSS | low polyreactivity |
